Measured values: US20260274993A1 (HUMMINGBIRD BIOSCIENCE PTE, published 2026)

What was measured:
[1] = biological target: T1, 3A6 mutant FR1; experiment: ELISA, human IgG1 antigen captured on anti-human IgG Fc;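 further: humanized antibodies bound to human IgG1 antigen captured at 1 µg/ml on anti-human IgG Fc plates, detected with anti-mouse IgG Fc/HRP, VSTB112 serving as negative control protein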
T1 construct: also called 3A6 FR1; 3A6-FR1 (VH4-34 FR1 mutant)
Procedure: (§1) The binding affinity of each humanized antibody for 3A6 antibody (containing VH4-34 antigen), 3A6-FR1 (VH4-34 FR1 mutant) and VSTB112 (negative control protein) was evaluated.
(§2) Plates were coated with 1 ug/ml of anti-human IgG Fc overnight at 4° C. Plates were washed thrice with PBS/0.05% Tween (PBST) before blocking with 5% BSA for 1 h at room temp (RT). Plates were then washed again before addition of 1 μg/ml of 3A6 (VH4-34 antigen), 3A6-FR1 (VH4-34 FR1 mutant) or VSTB112 (negative control protein) human IgG1 proteins. Plates were washed thrice. […] After washing the plates, anti-mouse IgG Fc/HRP diluted 1:5000 in 1% BSA was added and incubated for 1 h at RT. Plates were washed before detection using 1-step ELISA substrate.

[2] = biological target: T2, 3A6; experiment: as above
T2 construct: also called 3A6 antibody (containing VH4-34 antigen); 3A6 (VH4-34 antigen)
T2 sequence (VH, as listed by the source, chain 1 of 2): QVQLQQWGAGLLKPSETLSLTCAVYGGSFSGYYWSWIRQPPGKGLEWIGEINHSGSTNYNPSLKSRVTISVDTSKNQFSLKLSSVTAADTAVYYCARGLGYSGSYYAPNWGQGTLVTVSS
T2 sequence (VL, as listed by the source, chain 2 of 2): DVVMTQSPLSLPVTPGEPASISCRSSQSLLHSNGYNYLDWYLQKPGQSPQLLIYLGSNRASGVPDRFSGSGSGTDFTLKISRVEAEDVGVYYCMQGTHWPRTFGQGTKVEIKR
Procedure: as §1, §2

[3] = biological target: T3, antibodies containing VH4-34 endogenously expressed by cell line OCI-Ly3; experiment: flow cytometry, EC50 of MFI, OCI-Ly3 cells endogenously expressing VH4-34
T3 construct: Whole, on cells; also called VH4-34-expressing cell line OCI-Ly3
Procedure: (§3) Binding was assessed by FACS. Briefly, cells were assayed in PBS with 0.5% BSA and 2 mM EDTA. Live dead staining was performed with a live dead cell dye for 15 minutes at 4° C. […] Following this, cells were incubated with a secondary PE goat anti-mouse IgG (1:300) for 30 mins at 4° C. and PE readout was measured.

[4] = biological target: T3, antibodies containing VH4-34 …; experiment: flow cytometry, EC50 of % parent, OCI-Ly3 cells endogenously expressing VH4-34
Procedure: as §3

T1 sequence (VH, as listed by the source, chain 1 of 2): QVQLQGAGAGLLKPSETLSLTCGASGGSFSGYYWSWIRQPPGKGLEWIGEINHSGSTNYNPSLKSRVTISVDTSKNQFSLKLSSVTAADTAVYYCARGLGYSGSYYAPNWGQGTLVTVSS
T1 sequence (VL, as listed by the source, chain 2 of 2): as the sequence (VL, as listed by the source, chain 2 of 2) above

Row | Binder | binding result [1] | EC50 [2] [nM] | EC50 [3] [nM] | EC50 [4] [nM]
1 | D011-7016-LD2 H4/L4 IgG2a (antibody, V domains shown) VH: QVQLQESGPGLVKPSETLSLTCTVSWDAITSGYWNWVRQPPGNKLEYMGYISYSGSAHYNPSLKSRITISRDTSKNQYSLKLSSVTAADTAVYYCASYSFAYWGQGTLVTVSS VL: EIVLTQSPDFQSVTPKEKVTITCRASQSIDNQLHWYQQKPDQSPKLLIKYASQSISGVPSRFSGSGSGTDFTLTISSLEAEDAATYFCQQSYGWPYTFGGGTKLEIKR | no binding (tested: 1 µg/ml (highest concentration)) | 0.0365 |  | 
2 | D011-7016-LD2 H5/L3 IgG2a (antibody, V domains shown) VH: QVQLQESGPGLVKPSQTLSLTCTVSWDAITSGYWNWVRQHPGNKLEYMGYISYSGSAHYNPSLKSRITISRDTSKNQYSLKLSSVTAADTAVYYCASYSFAYWGQGTLVTVSS VL: DIQMTQSPSSLSASVGDRVTITCRASQSIDNQLHWYQQKPGKSPNLLINYASQSISGVPSRFSGSGSGTDFTLTISSLQPEDFATYFCQQSYGWPYTFGGGTKVEIKR | no binding (tested: 1 µg/ml (highest concentration)) | 0.282 |  | 
3 | D011-7016-LD2 H3/L1 IgG2a (antibody, V domains shown) VH: QVQLQESGPGLVKPSETLSLTCSVSWDAITSGYWNWVRQPPGNKLEYMGYISYSGSAHYNPSLKSRITISRDTSKNQYSLTLTSMTAADTALYYCASYSFAYWGQGTLVTVSS VL: DIVMTQSPPSLSVTPGEPASLSCRASQSIDNQLHWYLQKPGQSPQLLINYASQSISGVTDRFSGSGSGTDFTLKISRVEAEDVGVYFCQQSYGWPYTFGGGTKVEIKR | no binding (tested: 1 µg/ml (highest concentration)) | 0.0398 | 0.292 | 0.00375
4 | D011-7016-LD2 H1/L3 IgG2a (antibody, V domains shown) VH: QVQLQESGPGLVKPSQTLSLTCTVSWDAITSGYWNWVRQHPGKGLEYMGYISYSGSAHYNPSLKSRITISRDTSKNQYSLKLSSVTAADTATYYCASYSFAYWGQGTLVTVSS VL: DIQMTQSPSSLSASVGDRVTITCRASQSIDNQLHWYQQKPGKSPNLLINYASQSISGVPSRFSGSGSGTDFTLTISSLQPEDFATYFCQQSYGWPYTFGGGTKVEIKR | no binding (tested: 1 µg/ml (highest concentration)) | 0.0469 |  | 
5 | D011-7016-LD2 H3/L2 IgG2a (antibody, V domains shown) VH: QVQLQESGPGLVKPSETLSLTCSVSWDAITSGYWNWVRQPPGNKLEYMGYISYSGSAHYNPSLKSRITISRDTSKNQYSLTLTSMTAADTALYYCASYSFAYWGQGTLVTVSS VL: DIVMTQSPPSLSVTPGESASISCRASQSIDNQLHWYLQKPGQSPQLLINYASQSISGVTDRFSGSGSGTDFTLKISRVEAEDVGMYFCQQSYGWPYTFGGGTKVEIKR | no binding (tested: 1 µg/ml (highest concentration)) | 0.053 |  | 
6 | D011-7016-LD2 H3/L3 IgG2a (antibody, V domains shown) VH: QVQLQESGPGLVKPSETLSLTCSVSWDAITSGYWNWVRQPPGNKLEYMGYISYSGSAHYNPSLKSRITISRDTSKNQYSLTLTSMTAADTALYYCASYSFAYWGQGTLVTVSS VL: DIQMTQSPSSLSASVGDRVTITCRASQSIDNQLHWYQQKPGKSPNLLINYASQSISGVPSRFSGSGSGTDFTLTISSLQPEDFATYFCQQSYGWPYTFGGGTKVEIKR | no binding (tested: 1 µg/ml (highest concentration)) | 0.169 |  | 
7 | D011-7016-LD2 H1/L1 IgG2a (antibody, V domains shown) VH: QVQLQESGPGLVKPSQTLSLTCTVSWDAITSGYWNWVRQHPGKGLEYMGYISYSGSAHYNPSLKSRITISRDTSKNQYSLKLSSVTAADTATYYCASYSFAYWGQGTLVTVSS VL: DIVMTQSPPSLSVTPGEPASLSCRASQSIDNQLHWYLQKPGQSPQLLINYASQSISGVTDRFSGSGSGTDFTLKISRVEAEDVGVYFCQQSYGWPYTFGGGTKVEIKR | no binding (tested: 1 µg/ml (highest concentration)) | 0.0446 |  | 
8 | D011-7016-LD2 H1/L4 IgG2a (antibody, V domains shown) VH: QVQLQESGPGLVKPSQTLSLTCTVSWDAITSGYWNWVRQHPGKGLEYMGYISYSGSAHYNPSLKSRITISRDTSKNQYSLKLSSVTAADTATYYCASYSFAYWGQGTLVTVSS VL: EIVLTQSPDFQSVTPKEKVTITCRASQSIDNQLHWYQQKPDQSPKLLIKYASQSISGVPSRFSGSGSGTDFTLTISSLEAEDAATYFCQQSYGWPYTFGGGTKLEIKR | no binding (tested: 1 µg/ml (highest concentration)) | 0.0234 | 0.46 | 0.00765
9 | D011-7016-LD2 H4/L3 IgG2a (antibody, V domains shown) VH: QVQLQESGPGLVKPSETLSLTCTVSWDAITSGYWNWVRQPPGNKLEYMGYISYSGSAHYNPSLKSRITISRDTSKNQYSLKLSSVTAADTAVYYCASYSFAYWGQGTLVTVSS VL: DIQMTQSPSSLSASVGDRVTITCRASQSIDNQLHWYQQKPGKSPNLLINYASQSISGVPSRFSGSGSGTDFTLTISSLQPEDFATYFCQQSYGWPYTFGGGTKVEIKR | no binding (tested: 1 µg/ml (highest concentration)) | 0.011 |  | 
10 | D011-7016-LD2 H4/L1 IgG2a (antibody, V domains shown) VH: QVQLQESGPGLVKPSETLSLTCTVSWDAITSGYWNWVRQPPGNKLEYMGYISYSGSAHYNPSLKSRITISRDTSKNQYSLKLSSVTAADTAVYYCASYSFAYWGQGTLVTVSS VL: DIVMTQSPPSLSVTPGEPASLSCRASQSIDNQLHWYLQKPGQSPQLLINYASQSISGVTDRFSGSGSGTDFTLKISRVEAEDVGVYFCQQSYGWPYTFGGGTKVEIKR | no binding (tested: 1 µg/ml (highest concentration)) | 0.0521 |  | 
11 | D011-7016-LD2 H5/L4 IgG2a (antibody, V domains shown) VH: QVQLQESGPGLVKPSQTLSLTCTVSWDAITSGYWNWVRQHPGNKLEYMGYISYSGSAHYNPSLKSRITISRDTSKNQYSLKLSSVTAADTAVYYCASYSFAYWGQGTLVTVSS VL: EIVLTQSPDFQSVTPKEKVTITCRASQSIDNQLHWYQQKPDQSPKLLIKYASQSISGVPSRFSGSGSGTDFTLTISSLEAEDAATYFCQQSYGWPYTFGGGTKLEIKR | no binding (tested: 1 µg/ml (highest concentration)) | 0.0495 | 0.282 | 0.00251
12 | D011-7016-LD2 H3/L4 IgG2a (antibody, V domains shown) VH: QVQLQESGPGLVKPSETLSLTCSVSWDAITSGYWNWVRQPPGNKLEYMGYISYSGSAHYNPSLKSRITISRDTSKNQYSLTLTSMTAADTALYYCASYSFAYWGQGTLVTVSS VL: EIVLTQSPDFQSVTPKEKVTITCRASQSIDNQLHWYQQKPDQSPKLLIKYASQSISGVPSRFSGSGSGTDFTLTISSLEAEDAATYFCQQSYGWPYTFGGGTKLEIKR | no binding (tested: 1 µg/ml (highest concentration)) | 0.0627 |  | 
13 | D011-7016-LD2 H1/L2 IgG2a (antibody, V domains shown) VH: QVQLQESGPGLVKPSQTLSLTCTVSWDAITSGYWNWVRQHPGKGLEYMGYISYSGSAHYNPSLKSRITISRDTSKNQYSLKLSSVTAADTATYYCASYSFAYWGQGTLVTVSS VL: DIVMTQSPPSLSVTPGESASISCRASQSIDNQLHWYLQKPGQSPQLLINYASQSISGVTDRFSGSGSGTDFTLKISRVEAEDVGMYFCQQSYGWPYTFGGGTKVEIKR | no binding (tested: 1 µg/ml (highest concentration)) | 0.0427 |  | 
